Data as given in US5968526A, “T cell epitopes of the major allergens from Dermatophagoides (house dust mite)” (Immulogic Pharamaceutical Corporation, priority 1995, dated 1999).

Key:
mast cells or basophils = assay: histamine release; assay type: cell-based, human; conditions: data not shown
Experimental: To determine whether a peptide which binds IgE results in the release of mediators, a histamine release assay can be performed using standard reagents and protocols obtained for example, from Amac, Inc. (Westbrook, Me.). Briefly, a buffered solution of a peptide to be tested is combined with an equal volume of whole heparinized blood from an allergic subject. After mixing and incubation, the cells are pelleted and the supernatants are processed and analyzed using a radioimmunoassay to determine the amount of histamine released.

pH-solubility profile = assay type: physicochemical; conditions: for solubility: at a pH in the range pH 6 to pH 8; for solubility (in words): aqueous buffer, superior solubility = >3 mg/ml at pH 6-8
Experimental: (§1) 50 mM sodium phosphate stock solutions:
(§2) Stock solution A: 0.66 g […] of monobasic sodium phosphate monohydrate U.S.P. and 50 mg EDTA disodium dihydrate, U.S.P. were dissolved in 100 mL of WFI. The solution was filtered through a 0.2 micron filter
(§3) Stock solution B: 0.71 g […] of dibasic sodium phosphate U.S.P. were disolved in 100 ml WFI. The solution was filtered through a 0.2 micron filter.
(§4) 2. Initial peptide dispersions
(§5) Dispersion A: 3.0 mg of each candidate peptide,DPI-21.2 (SEQ. ID. NO. 28), DFI-22.2 (SEQ. ID. NO. 93), DFI-23.31(SEQ. ID. NO. 165), DFI-26.6 (SEQ. ID. NO. 168), DPII-20.9 (SEQ. ID. NO. 169), DPII-22.14 (SEQ. ID. NO. 180) and DPII-25.15 (SEQ. ID. NO. 188), was weighed out separately and placed in separate 1.5 mL eppendoff vials with 600 μL of stock solution A. The composition was agitated for 1 seconds to mix well.
as §5, with “Dispersion B:” for “Dispersion A:”, “each peptide, DPI-21.2” for “each candidate peptide,DPI-21.2”, “solution B.” for “solution A.”, “The mixture” for “The composition”, “for 5” for “for 1”
(§6) Dispersions A and B were sonicated for 2 minutes for good homogeneity. A small volume was pipetted from each dispersion into a labeled eppendoff vial according to the following volume ratio:
(§7) The resultant solutions/suspensions were stored in the dark at about 22° C.±2 for 24 hours without agitation. The solutions were filtered and filtrates were analyzed for pH and peptide concentration.
(§8) The concentration of filtered peptide solutions was determined by HPLC analysis. In this experiment, the solubility of peptide at each pH is defined as the amount of peptide remaining in solution after filtration through a membrane filter having a 0.2 micrometer pore size. The extent of degradation of peptides was estimated by calculating the percent of total degradant peak area over the total peak area.
The pH values with respect to the solubility values was plotted and are shown in FIG. 37 for each respective peptide. As shown in the solubility curve for each peptide as represented in FIG. 37, peptides DPI-21.2 (SEQ. ID. NO. 28), DFI-22.2 (SEQ. ID. NO. 93), DFI-23.31 (SEQ. ID. NO. 165), DFI-26.6 (SEQ. ID. NO. 168), DPII-20.9 (SEQ. ID. NO. 169), DPII-22.14 (SEQ. ID. NO. 180) and DPII-25.15 (SEQ. ID. NO. 188) are each soluble at greater than 3 mg/ml at a pH in the pH range of pH 6 to pH 8.

human IgE = assay: direct binding ELISA of IgE to mite allergen proteins and peptides; conditions: for IgE reactivity, candidate peptides: data not shown; for IgE binding (ELISA), modified peptides: plasma of 19 mite-allergic patients and pool of 18, Example XV
[1] = pH-stability profile / solution stability (HPLC); assay type: physicochemical; conditions: pH 6 to pH 8
Experimental: as §1, §2, §3, §4, §5
as §5, with “Dispersion B:” for “Dispersion A:”, “each peptide, DPI-21.2” for “each candidate peptide,DPI-21.2”, “solution B.” for “solution A.”, “The mixture” for “The composition”, “for 5” for “for 1”
as §6, §7, §8
The pH-stability profiles for each peptide DPI-21.2 (SEQ. ID. NO. 28), DFI-22.2 (SEQ. ID. NO. 93), DFI-23.31(SEQ. ID. NO. 165), DFI-26.6 (SEQ. ID. NO. 168), DPII-20.9 (SEQ. ID. NO. 169), DPII-22.14 (SEQ. ID. NO. 180) and DPII-25.15 (SEQ. ID. NO. 188) in equal concentration combination at 3, 2, and 1 mg/ml per peptide and prepared in duplicate as described above with one set stored at about 5° C. for 24 hours and one set stored at about 22° C.±2 for 24 hours, were calculated and tabulated as a function of the percentage of total of degradant peak area (FIG. 38).

| Substance | histamine release (mast cells or basophils) | solubility (pH-solubility profile) | IgE reactivity, candidate peptides (human IgE) | stability (in words) [1] | IgE binding (ELISA), modified peptides (human IgE) | solubility (in words) (pH-solubility profile) | stability (in words) ([1]; listed as SEQ. ID. NO. 207) |
| --- | --- | --- | --- | --- | --- | --- | --- |
| DF I-22.2: VAATESAYLAYRNTSLDLSEQELVD, amino acid residues 40-64 of Der f I | negative | greater than 3 mg/ml | negative | acceptable solution stability | – | – | – |
| DP I-21.2: Der p I peptide; unique peptide (SINGNAPAEIDLRQMRTVTPIRMQ) | negative | greater than 3 mg/ml | negative | acceptable solution stability | – | – | – |
| DP I-23.31: modified Der p I peptide; unique peptide (DEEGVVQESYYRYVAREQSCRRPNAE) | negative | greater than 3 mg/ml | negative | acceptable solution stability | No plasma samples contained IgE | – | – |
| DP I-26.6: modified Der p I peptide; unique peptide (DEGIKDLDAFRHYDGRTIIQRDNGYE) | negative | greater than 3 mg/ml | negative | acceptable solution stability | – | – | – |
| DP II-20.9: modified Der p II peptide; unique peptide (DQVDVKDCANHEIKKVLVPGCHGSE) | negative | greater than 3 mg/ml | negative | acceptable solution stability | No plasma samples contained IgE | – | – |
| DP II-22.14: DKELEAVFEANQNTKTAKAE; unique peptide | negative | greater than 3 mg/ml | negative | acceptable solution stability | No plasma samples contained IgE | increased by an order of magnitude | – |
| DP II-22: QLEAVFEANQNTKTAKIEIKASIDGLEV | – | – | – | stable | – | did not meet the "superior solubility" requirement of 3 mg/ml | nor did it meet the stability requirement |
